These results are taken from patent publication US20050048528A1 (WALTER AND ELIZA HALL INSTITUTE OF MEDICAL RESEARCH, published 2005).

The target of assay [1] is BRCA1 activation domain (amino acids 1293-1863) fused to the Gal4 DNA-binding domain (human, UniProt P04386 1-147; P38398 1293-1863). In words: cell-based or functional assay.
The target in the next assay is T1, HA-CtIP (59-320) (human, UniProt Q99708 59-320).
T1 construct: range 59-320
In words: co-immunoprecipitation (anti-Flag) / anti-HA western blot, transfected 293T cells. Here is the method:
(§1) FIG. 7: Two regions within CtIP specifically interact with LMO4. A, Schematic representation of wild-type CtIP and deletion mutant constructs that were tested for interaction with LMO4 in mammalian cells. The region that associates with BRCA1 and two putative leucine zipper (LZ) domains are indicated. A summary of each mutant's ability to interact with LMO4 is shown. […] Lysates were prepared and proteins immunoprecipitated using anti-Flag monoclonal antibody (F) or control isotype-matched (C) monoclonal antibody. After SDS-PAGE electrophoresis, western blotting was performed using α-HA antibody, specific for CtIP protein. Western blot analysis confirmed expression of Flag-LMO4 and CtIP mutant proteins (lower panels).
(§2) Cell extracts (0.5 ml) were prepared in whole cell lysis buffer (150 mM NaCl, 5 mM EDTA, 50 mM Tris pH7.5, 1% Nonidet P-40, 1 mM DTT) containing protease inhibitors (1 mM phenylmethylsulfonyl fluoride, 1 μg/ml leupeptin, 1 μg/ml pepstatin, 1 μg/ml aprotinin) and normalised for protein concentration, as determined by Bradford analysis (BioRad). Proteins were immunoprecipitated with either anti-Flag M2 (Sigma) or anti-myc 9E10 and protein G sepharose (Amersham Pharmacia Biotech.), and separated by SDS-PAGE (Novex). […]

For another assay, the target named is HA-CtIP (281-620) (human, UniProt Q99708 281-620). The description is as above. The procedure: as §1, §2
In assay [2] the target is T2, endogenous CtIP of human HBL100 breast epithelial cells (human, UniProt Q99708 1-897).
T2 construct: mature; also called native CtIP
Put plainly: immunoprecipitation of HBL100 nuclear extracts with anti-LMO4 antisera / anti-CtIP western blot (FIG. 6D). Here is the method:
(§3) A, CtIP associates with LMO4 and LMO2. […] Lysates were prepared and proteins immunoprecipitated with the indicated specific antisera. F, Flag; C, control isotype-matched monoclonal antibody. Immunoblotting was performed with the antibodies indicated under each panel. Lane 4 depicts the reciprocal immunoprecipitation experiment performed using an anti-CtIP antibody. The 25 kD bands in lane 4 represent light chain. Western blot analysis of lysates confirmed expression of CtIP and LMO proteins. Note the different size markers indicated for LMO proteins detected by western analysis using anti-Flag antibody (lane 4). B, The first LIM domain but not the second LIM domain of LMO4 interacts with CtIP. […] Cell extracts were immunoprecipitated with anti-Flag (F) antibody, then immunoblotted with anti-CtIP antisera. Western blot analysis of lysates confirmed expression of CtIP and LIM polypeptides (lower panels). […] Cell extracts were immunoprecipitated with anti-Flag (F) antibody, then immunoblotted with anti-CtIP antibody. Western blot analysis of lysates confirmed expression of CtIP and LIM proteins (lower panels). D, Interaction between endogenous LMO4 and CtIP proteins in HBL100 epithelial cells. Nuclear extracts were immunoprecipitated with pre-immune serum (lane 1) or anti-LMO4 antisera (lane 2), then blotted using anti-CtIP monoclonal antibody. […]

The target in assay [3] is T3, endogenous BRCA1 of human HBL100 breast epithelial cells (human, UniProt P38398 1-1863).
T3 construct: mature; also called native BRCA1; BRCA1 (220 kD)
Put plainly: immunoprecipitation of HBL100 nuclear lysates with rat anti-LMO4 monoclonal / anti-BRCA1 western blot (FIG. 9B). From the text:
Nuclear lysates were immunoprecipitated with a rat anti-LMO4 monoclonal (lane 2) or control antibody (lane 3), then immunoblotted with anti-BRCA1 (upper panel) or anti-CtIP (middle panel) monoclonal antibody. The immunoprecipitate was divided between two SDS-polyacrylamide gels, one of which underwent extended electrophoresis for detection of BRCA1 (220 kD) while the other was immunoblotted with anti-CtIP antibody. As a control, immunoprecipitate was also blotted with anti-LMO4 monoclonal antibody (lower panel). Lysate from HBL100 cells was loaded in an adjacent lane to provide a size control for the respective proteins (lane 1), indicated by arrows. C, Interaction between LMO4, CtIP, BRCA1 and Ldb1 in mammalian cells. […] Western blot analysis confirmed high level expression of individual proteins in these transfectants (lane 1).
For detection of endogenous proteins, nuclear extracts from human HBL100 cells were prepared (Watters, D., Khanna, K. K., Beamish, H., Birrell, G., Spring, K., Kedar, P., Gatei, M., Stenzel, D., Hobson, K., Kozlov, S., Zhang, N., Farrell, A., Ramsay, J., Gatti, R., and Lavin, M. (1997) Oncogene 14(16), 1911-21). Proteins were immunoprecipitated with either anti-LMO4 rabbit antisera or a rat anti-LMO4 monoclonal antibody and protein G sepharose, and fractionated by SDS-PAGE. […]

The target of assay [4] is T4, HA-tagged BRCA1 SZ fragment (residues 1528-1863) (human, UniProt P38398 1528-1863, 35S-methionine-labeled in the in vitro binding assay).
T4 construct: also called BRCT (SZ) region
Put plainly: in vitro binding of 35S-labeled BRCA1-SZ to GST-LMO4 on glutathione sepharose, SDS-PAGE. The procedure:
FIG. 10: The C-terminal BRCT domains of BRCA1 mediate interaction with LMO4. […] Lysates were immunoprecipitated with anti-Flag (F) or control (C) antibody, then western blotted with anti-HA antibody. B, LMO4 and the BRCT domain interact in vitro. […] Bound proteins were analysed by SDS-PAGE. Arrow depicts the BRCA1-SZ protein. C, LMO4 and the BRCT (SZ) region of BRCA1 interact in yeast Hf7c cells. Yeast cells were cotransformed with the indicated expression vectors and plated on media deficient in his, leu and trp. Staining for β-galactosidase activity verified that the His⁺ colonies obtained for LMO4+CtIP and LMO4+BRCA1 (SZ) transformants were also β-Gal⁺. No colonies were obtained for Hf7c cells transformed with BRCA1 (SZ)+lamin, BRCA1 (SZ) alone or LMO4 alone.
Binding assays were carried out with a 10 μl aliquot of […] BRCA1-SZ primed lysate and 100 μl (50% slurry of GST-sepharose beads; Amersham Pharmacia) of GST-LMO4 or GST-only protein in GST interaction buffer (150 mM NaCl, 10 mM Tris pH 8, 0.3% NP-40, 1 mM DTT, 0.25% BSA and 0.5 mM phenylmethylsulfonyl fluoride) for 2 hours at 4° C. The beads were subsequently washed twice in GST interaction buffer containing BSA, followed by two more washes in GST interaction buffer without BSA. Finally, the bound BRCA1 C-terminal polypeptide was eluted by boiling the beads for 5 min in 30 μl loading buffer and analysed by SDS-PAGE.

In assay [5] the target is CtIP (residues 45-897), human, from pCMV-HA-ns311 (human, UniProt Q99708 45-897). In words: co-immunoprecipitation (anti-Flag) / anti-CtIP western blot, transfected 293T cells. The procedure: as §3, with “FIG. 6: Interaction between LM04 and CtIP requires a single LIM domain and appears to be specific for the LMO subclass. A,” for “A,”, “cells.” for “cells. Nuclear extracts were immunoprecipitated with pre-immune serum (lane 1) or anti-LMO4 antisera (lane 2), then blotted using anti-CtIP monoclonal antibody.”
Chain of CtIP (residues 45-897), human, from pCMV-HA-ns311 (Q99708 45-897 limits assumed): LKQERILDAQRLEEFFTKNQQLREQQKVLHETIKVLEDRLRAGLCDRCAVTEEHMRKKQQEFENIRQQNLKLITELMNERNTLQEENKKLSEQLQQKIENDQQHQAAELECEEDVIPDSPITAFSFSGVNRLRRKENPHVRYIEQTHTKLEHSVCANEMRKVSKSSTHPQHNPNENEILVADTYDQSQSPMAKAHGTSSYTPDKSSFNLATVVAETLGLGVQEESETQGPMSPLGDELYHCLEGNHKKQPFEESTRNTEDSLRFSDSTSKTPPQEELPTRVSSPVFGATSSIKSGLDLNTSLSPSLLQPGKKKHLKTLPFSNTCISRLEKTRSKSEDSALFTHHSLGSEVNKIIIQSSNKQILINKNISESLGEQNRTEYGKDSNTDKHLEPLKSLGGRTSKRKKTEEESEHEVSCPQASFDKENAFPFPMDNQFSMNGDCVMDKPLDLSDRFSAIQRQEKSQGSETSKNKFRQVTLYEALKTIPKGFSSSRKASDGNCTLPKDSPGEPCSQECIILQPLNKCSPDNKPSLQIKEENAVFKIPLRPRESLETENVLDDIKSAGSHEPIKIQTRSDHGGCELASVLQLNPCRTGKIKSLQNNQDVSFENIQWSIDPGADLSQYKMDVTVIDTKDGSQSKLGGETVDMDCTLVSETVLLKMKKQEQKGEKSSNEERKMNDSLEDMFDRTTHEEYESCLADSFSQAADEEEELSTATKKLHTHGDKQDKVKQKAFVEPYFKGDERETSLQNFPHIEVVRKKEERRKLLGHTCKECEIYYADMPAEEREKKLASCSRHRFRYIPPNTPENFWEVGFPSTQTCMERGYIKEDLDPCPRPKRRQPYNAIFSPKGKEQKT

T4 sequence (P38398 1528-1863): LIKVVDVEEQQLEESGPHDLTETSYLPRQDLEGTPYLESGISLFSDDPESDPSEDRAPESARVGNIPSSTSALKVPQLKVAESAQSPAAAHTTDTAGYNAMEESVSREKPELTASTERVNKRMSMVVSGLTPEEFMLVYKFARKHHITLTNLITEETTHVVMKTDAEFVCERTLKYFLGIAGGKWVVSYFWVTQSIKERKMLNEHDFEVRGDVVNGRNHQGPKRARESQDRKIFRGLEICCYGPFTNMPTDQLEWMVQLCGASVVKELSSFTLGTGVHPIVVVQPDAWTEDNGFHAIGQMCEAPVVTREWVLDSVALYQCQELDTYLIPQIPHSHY
T3 sequence (P38398 whole entry): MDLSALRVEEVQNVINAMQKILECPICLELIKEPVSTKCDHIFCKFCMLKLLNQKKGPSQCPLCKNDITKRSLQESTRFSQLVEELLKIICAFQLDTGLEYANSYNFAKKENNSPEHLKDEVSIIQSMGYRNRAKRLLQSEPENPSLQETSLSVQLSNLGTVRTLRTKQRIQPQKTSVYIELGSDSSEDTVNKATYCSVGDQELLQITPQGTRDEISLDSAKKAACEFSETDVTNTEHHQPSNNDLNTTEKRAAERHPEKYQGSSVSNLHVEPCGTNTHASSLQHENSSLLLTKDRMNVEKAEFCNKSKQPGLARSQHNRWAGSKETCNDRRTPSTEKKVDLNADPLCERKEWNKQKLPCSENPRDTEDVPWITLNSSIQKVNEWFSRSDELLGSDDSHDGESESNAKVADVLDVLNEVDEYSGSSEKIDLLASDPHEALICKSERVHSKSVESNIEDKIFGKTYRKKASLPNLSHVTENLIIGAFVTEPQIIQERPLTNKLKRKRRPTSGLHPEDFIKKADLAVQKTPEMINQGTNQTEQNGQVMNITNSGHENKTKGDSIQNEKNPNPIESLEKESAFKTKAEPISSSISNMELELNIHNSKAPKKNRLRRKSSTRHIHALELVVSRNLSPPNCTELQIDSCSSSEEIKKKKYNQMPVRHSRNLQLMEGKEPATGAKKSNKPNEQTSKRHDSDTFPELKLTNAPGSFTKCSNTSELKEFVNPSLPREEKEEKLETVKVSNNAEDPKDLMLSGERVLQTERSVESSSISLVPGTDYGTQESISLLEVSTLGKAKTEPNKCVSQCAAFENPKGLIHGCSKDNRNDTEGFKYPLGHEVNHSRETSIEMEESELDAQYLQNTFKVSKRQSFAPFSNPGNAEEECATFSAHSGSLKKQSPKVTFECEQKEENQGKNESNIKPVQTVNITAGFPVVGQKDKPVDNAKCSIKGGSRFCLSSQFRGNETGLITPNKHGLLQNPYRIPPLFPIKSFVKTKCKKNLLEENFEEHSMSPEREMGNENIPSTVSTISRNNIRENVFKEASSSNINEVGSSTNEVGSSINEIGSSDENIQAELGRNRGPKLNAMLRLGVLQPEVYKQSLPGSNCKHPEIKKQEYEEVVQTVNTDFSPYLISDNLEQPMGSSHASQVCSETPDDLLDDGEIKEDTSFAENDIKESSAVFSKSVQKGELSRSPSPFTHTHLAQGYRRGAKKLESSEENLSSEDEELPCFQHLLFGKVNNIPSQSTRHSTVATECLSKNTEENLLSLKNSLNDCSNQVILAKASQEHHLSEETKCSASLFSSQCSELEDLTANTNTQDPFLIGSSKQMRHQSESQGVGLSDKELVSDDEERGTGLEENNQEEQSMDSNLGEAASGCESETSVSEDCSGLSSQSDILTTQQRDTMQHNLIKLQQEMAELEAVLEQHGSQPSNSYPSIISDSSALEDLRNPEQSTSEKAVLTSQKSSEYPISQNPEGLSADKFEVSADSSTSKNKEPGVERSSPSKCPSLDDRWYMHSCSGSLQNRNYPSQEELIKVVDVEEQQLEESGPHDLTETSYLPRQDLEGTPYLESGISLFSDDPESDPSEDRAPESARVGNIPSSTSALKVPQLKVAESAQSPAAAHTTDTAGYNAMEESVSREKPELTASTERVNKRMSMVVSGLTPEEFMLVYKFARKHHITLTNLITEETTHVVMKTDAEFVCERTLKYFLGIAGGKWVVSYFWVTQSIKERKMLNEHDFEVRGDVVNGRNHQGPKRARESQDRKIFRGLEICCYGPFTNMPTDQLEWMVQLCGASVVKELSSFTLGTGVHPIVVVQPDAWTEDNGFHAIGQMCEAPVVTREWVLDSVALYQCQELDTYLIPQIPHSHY
T2 sequence (Q99708 whole entry): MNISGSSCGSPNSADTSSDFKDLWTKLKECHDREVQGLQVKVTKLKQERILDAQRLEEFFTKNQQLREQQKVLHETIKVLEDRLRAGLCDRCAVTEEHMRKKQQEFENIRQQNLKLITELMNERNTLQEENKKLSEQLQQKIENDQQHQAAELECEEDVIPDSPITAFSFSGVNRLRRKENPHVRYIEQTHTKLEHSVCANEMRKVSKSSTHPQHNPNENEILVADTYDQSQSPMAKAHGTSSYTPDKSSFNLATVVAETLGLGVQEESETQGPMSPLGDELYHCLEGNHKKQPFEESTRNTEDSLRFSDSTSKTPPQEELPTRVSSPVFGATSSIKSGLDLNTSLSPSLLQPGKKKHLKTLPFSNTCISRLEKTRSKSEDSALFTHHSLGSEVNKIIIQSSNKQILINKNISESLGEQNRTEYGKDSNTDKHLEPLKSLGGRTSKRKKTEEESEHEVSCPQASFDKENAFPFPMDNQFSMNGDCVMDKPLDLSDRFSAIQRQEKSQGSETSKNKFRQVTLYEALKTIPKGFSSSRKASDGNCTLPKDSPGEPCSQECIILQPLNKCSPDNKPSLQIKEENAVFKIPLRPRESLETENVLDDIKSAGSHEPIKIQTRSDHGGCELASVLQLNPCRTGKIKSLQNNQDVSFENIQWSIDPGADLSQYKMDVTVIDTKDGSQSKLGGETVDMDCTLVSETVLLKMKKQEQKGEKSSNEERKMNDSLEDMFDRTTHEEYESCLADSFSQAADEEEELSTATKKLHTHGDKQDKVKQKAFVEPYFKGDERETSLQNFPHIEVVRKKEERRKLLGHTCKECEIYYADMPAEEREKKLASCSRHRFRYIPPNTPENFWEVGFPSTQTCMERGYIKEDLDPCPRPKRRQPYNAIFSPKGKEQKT
Chain of HA-CtIP (281-620) (Q99708 281-620 limits assumed): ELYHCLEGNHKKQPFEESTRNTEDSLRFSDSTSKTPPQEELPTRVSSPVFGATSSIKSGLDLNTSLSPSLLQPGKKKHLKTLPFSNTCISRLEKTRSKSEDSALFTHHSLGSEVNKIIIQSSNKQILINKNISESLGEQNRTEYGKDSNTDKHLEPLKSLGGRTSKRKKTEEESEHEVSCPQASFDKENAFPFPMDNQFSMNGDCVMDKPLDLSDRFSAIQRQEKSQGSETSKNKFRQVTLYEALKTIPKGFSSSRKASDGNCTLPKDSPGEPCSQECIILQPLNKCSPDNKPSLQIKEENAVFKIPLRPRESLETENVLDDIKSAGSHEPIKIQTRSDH
T1 sequence (Q99708 59-320 limits assumed): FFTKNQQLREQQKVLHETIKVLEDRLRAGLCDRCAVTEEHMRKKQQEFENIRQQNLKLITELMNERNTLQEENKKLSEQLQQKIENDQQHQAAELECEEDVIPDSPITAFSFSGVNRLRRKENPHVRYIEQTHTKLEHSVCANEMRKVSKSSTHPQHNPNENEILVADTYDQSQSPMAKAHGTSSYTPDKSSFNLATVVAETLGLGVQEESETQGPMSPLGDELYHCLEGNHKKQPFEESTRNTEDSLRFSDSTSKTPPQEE

B1: Flag-tagged LMO4 (full-length) (other, UniProt P61968 1-165, looked up, not shown: small tags and cut ends)
chain: MVNPGSSSQPPPVTAGSLSWKRCAGCGGKIADRFLLYAMDSYWHSRCLKCSCCQAQLGDIGTSCYTKSGMILCRNDYIRLFGNSGACSACGQSIPASELVMRAQGNVYHLKCFTCSTCRNRLVPGDRFHYINGSLFCEHDRPTALINGHLNSLQSNPLLPDQKVC
notes: mature; also called Flag-LMO4; LM04
With B1, the “transcription of the Gal4-CAT reporter gene in 293T cells (CAT ELISA)” value in assay [1] was around 3 fold. For the same molecule, the binding result in the assay with HA-CtIP (59-320) and with HA-CtIP (281-620) was “no binding” throughout.

B2: endogenous LMO4 of human HBL100 breast epithelial cells (other, UniProt P61968 1-165, looked up)
chain: B1 chain
notes: mature; also called native LMO4; 17 kD LMO4 protein
Turning to B2, the binding result in assay [2] and in assay [3] was “binds” each time.

B3: GST-LMO4 fusion protein (full-length mouse LMO4 in pGEX-2T) (other, UniProt P61969 1-165, looked up)
chain: B1 chain
notes: mature; Expressed in bacterial strain UT5600, immobilised on glutathione sepharose; not shown: glutathione-S-transferase as encoded by pGEX-2T; linker to LMO4 not described
Regarding B3, the binding result in assay [4] was “binds”.

B4: Flag-tagged second LIM domain of LMO4 (residues 79-165) (other, UniProt P61968 79-165, looked up, not shown: small tags and cut ends)
chain: RLFGNSGACSACGQSIPASELVMRAQGNVYHLKCFTCSTCRNRLVPGDRFHYINGSLFCEHDRPTALINGHLNSLQSNPLLPDQKVC
notes: also called LIM2
Turning to B4, the binding result in assay [5] is recorded as “no binding”.
